In the supplement of paper PMC6379048:

Assays:
Experiment in all cases: EC50 of free RNA motif oligo competing protein binding to immobilised probe
MKRN2 = biological target: T1, MKRN2 (UniProt Q9H000)
T1 sequence: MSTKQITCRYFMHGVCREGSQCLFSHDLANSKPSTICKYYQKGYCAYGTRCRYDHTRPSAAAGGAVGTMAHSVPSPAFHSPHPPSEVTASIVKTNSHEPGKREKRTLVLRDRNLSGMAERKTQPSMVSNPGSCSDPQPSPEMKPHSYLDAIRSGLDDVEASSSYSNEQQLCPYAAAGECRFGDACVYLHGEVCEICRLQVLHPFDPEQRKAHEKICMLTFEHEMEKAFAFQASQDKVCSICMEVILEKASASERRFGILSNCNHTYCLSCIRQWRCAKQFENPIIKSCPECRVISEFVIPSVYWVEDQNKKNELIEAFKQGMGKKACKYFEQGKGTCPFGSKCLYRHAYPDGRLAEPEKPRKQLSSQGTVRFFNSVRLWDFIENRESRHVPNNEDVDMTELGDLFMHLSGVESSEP
In short: (§1)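 Over three biological replicates and two independent experiments, proteins captured on NHS-Sepharose beads carrying 5′-amino-C6 RNA oligos were quantified by label-free LC-MS/MS and normalised to the control. Capture lasted 30 min at 4°C and followed a 1 h pre-incubation at 4°C of HEK293-FT lysate (2.5 mg protein/well) with the same oligos in free form (0 nM to 30 μM). EC50 was taken from a four-parameter log-logistic fit, and Kd was EC50 corrected by a protein-dependent depletion factor.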

RBM14 = biological target: T2, RBM14 (UniProt Q96PK6)
T2 sequence: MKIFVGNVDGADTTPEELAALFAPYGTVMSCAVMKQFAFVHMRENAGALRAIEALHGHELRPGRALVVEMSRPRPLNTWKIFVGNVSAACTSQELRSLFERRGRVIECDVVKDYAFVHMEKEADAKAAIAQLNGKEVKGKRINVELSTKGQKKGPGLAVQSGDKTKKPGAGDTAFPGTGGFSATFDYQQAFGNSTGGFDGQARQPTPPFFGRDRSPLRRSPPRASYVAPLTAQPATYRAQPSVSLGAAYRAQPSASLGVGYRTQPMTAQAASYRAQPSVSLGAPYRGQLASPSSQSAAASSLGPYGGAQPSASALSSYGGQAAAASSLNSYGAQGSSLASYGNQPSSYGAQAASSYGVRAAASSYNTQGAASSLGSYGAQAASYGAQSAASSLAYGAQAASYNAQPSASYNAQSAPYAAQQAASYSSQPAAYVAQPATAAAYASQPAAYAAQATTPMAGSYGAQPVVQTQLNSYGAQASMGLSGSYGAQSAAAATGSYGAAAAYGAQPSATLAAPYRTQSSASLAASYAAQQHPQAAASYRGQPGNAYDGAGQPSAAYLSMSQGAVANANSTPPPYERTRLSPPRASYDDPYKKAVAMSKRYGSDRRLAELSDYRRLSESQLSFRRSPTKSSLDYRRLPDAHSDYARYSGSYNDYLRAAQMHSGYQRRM
In short: as §1

PABPN1 = biological target: T3, PABPN1 (UniProt Q86U42)
T3 sequence: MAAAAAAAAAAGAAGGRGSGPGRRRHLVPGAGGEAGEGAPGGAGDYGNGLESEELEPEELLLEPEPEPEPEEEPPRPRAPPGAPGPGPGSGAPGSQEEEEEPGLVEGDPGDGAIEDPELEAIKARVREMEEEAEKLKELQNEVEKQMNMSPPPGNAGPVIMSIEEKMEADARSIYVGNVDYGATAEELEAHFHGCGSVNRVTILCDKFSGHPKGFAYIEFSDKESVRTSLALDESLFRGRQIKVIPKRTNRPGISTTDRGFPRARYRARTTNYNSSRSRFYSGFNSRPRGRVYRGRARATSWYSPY
In short: as §1

MRPL43 = MRPL43 (UniProt Q8N983)
In short: as §1

MRPL13 = MRPL13 (UniProt Q9BYD1)
In short: as §1

TRIM56 = biological target: T4, TRIM56 (UniProt Q9BRZ2)
T4 sequence: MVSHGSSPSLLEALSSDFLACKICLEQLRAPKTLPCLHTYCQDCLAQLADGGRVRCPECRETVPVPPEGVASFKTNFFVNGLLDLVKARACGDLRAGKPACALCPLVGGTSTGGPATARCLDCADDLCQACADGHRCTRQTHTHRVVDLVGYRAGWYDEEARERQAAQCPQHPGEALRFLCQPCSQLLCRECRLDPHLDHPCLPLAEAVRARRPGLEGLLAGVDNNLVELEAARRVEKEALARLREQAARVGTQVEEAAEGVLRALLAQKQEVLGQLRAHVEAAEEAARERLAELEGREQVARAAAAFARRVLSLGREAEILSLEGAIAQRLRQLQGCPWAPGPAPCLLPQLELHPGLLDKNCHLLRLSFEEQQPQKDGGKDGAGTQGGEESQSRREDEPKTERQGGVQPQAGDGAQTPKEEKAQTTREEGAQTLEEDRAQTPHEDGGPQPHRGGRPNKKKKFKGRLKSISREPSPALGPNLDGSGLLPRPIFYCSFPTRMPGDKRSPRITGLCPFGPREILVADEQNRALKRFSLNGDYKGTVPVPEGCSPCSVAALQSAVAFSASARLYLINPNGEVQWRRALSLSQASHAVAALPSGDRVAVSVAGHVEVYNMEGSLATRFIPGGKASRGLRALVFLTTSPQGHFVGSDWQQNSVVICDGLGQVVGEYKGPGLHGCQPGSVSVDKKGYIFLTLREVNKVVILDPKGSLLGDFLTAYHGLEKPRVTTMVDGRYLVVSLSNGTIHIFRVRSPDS
In short: as §1

MRPS31 = MRPS31 (UniProt Q92665)
In short: as §1

ATIC = ATIC (UniProt P31939)
Chain of ATIC (P31939 whole entry, looked up): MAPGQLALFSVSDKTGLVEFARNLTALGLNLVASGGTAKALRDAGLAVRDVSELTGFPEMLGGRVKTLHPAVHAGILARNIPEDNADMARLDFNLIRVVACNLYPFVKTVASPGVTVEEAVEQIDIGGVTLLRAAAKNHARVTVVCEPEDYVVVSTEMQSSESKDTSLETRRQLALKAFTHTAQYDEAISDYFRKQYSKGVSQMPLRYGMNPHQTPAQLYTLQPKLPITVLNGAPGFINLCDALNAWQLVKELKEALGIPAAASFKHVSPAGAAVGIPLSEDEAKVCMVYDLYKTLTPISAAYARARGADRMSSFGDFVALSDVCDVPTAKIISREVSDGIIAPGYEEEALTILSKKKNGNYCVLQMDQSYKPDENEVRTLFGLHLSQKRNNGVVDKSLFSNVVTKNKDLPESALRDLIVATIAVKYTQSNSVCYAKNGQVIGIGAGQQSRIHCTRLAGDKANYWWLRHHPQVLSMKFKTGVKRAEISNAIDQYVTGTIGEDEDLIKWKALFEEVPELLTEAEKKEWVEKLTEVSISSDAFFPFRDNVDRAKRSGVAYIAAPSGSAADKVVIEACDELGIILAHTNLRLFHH
In short: as §1

## AAUAAA
MKRN2
  EC50: 3550 nM
RBM14
  EC50: 1980 nM
PABPN1
  EC50: 3520 nM

## CUGUCCU
MRPL43
  EC50: 104 nM
MRPL13
  EC50: 194 nM

## UAUUUAU
TRIM56
  EC50: 3450 nM
MRPS31
  EC50: 93.7 nM
ATIC
  EC50: 804 nM
